Source: PMC6345366 (Chemical communications (Cambridge, England), 2017)
Square brackets hold non-standard residues; d marks the D form. Ends that are not written are not given here.

T1: KDM4A tandem tudor domain (human)
T1 sequence (O75164 whole entry, looked up): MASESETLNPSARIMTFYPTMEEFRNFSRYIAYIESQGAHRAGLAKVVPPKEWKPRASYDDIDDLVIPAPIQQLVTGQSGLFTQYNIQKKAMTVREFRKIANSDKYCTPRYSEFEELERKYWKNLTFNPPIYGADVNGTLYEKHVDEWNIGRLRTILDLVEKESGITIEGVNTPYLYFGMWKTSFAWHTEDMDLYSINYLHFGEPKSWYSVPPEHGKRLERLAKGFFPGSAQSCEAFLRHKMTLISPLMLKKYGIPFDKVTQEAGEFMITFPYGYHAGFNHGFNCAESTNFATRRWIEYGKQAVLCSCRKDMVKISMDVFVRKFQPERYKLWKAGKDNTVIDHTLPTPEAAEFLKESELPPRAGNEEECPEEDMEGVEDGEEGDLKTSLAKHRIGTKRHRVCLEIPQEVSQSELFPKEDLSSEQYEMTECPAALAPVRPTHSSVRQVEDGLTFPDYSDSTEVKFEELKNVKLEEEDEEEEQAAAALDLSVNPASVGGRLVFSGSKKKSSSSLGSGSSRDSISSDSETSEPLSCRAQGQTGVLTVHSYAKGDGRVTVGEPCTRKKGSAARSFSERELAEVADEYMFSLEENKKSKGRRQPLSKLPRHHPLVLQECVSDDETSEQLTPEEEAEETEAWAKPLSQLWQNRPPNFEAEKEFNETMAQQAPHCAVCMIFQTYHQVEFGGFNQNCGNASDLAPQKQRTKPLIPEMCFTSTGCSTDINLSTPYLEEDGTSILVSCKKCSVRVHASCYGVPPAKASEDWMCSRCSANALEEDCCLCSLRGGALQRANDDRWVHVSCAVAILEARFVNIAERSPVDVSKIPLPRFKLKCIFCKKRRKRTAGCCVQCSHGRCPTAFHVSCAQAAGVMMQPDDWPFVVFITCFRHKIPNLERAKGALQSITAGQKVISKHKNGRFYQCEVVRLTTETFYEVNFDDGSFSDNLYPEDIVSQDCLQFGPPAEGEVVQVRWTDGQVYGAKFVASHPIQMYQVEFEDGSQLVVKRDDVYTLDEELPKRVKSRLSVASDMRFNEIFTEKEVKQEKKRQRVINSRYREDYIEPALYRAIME

T2: TAF3 PHD zinc finger
T2 sequence (Q5VWG9 whole entry, species assumed, looked up): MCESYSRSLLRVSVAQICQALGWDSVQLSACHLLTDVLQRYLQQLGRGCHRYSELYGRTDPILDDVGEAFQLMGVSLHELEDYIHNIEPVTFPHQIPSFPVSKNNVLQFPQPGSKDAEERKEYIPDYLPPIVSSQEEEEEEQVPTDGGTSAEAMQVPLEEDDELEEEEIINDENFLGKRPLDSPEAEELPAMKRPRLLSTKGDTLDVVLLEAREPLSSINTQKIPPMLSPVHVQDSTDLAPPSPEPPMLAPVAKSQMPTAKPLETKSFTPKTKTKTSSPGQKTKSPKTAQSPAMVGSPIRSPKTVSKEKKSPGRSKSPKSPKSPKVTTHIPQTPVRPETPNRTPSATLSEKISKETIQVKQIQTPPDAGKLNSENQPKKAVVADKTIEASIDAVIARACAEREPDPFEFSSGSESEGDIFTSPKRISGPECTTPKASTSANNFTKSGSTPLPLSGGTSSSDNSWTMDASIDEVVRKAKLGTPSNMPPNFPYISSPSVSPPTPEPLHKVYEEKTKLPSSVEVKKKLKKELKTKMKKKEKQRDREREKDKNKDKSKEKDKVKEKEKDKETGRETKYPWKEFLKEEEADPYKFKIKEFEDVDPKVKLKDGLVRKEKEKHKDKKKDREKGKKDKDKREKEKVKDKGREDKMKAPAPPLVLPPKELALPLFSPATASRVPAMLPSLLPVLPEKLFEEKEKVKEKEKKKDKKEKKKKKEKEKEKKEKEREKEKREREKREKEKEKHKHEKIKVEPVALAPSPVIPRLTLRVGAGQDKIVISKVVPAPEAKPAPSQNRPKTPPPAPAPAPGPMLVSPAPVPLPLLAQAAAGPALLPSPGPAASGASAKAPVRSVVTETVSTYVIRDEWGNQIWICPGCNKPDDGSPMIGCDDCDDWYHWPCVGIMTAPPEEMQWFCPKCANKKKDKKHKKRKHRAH

T3: KDM5A PHD3 (third PHD zinc finger of KDM5A) (UniProt P29375 1609-1659)
T3 sequence: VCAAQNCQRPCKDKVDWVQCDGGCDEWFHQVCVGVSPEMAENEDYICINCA


Tests used:
Experiment in all cases: ITC
[1] = molecular target: T1, KDM4A tandem tudor domain (human)
[2] = molecular target: SGF29 tandem tudor domain
TAF3 PHD zinc finger = molecular target: T2, TAF3 PHD zinc finger
[3] = molecular target: T3, KDM5A PHD3 (third PHD zinc finger of …)

Sequence of SGF29 tandem tudor domain (Q96ES7 whole entry, the tested form may be a part): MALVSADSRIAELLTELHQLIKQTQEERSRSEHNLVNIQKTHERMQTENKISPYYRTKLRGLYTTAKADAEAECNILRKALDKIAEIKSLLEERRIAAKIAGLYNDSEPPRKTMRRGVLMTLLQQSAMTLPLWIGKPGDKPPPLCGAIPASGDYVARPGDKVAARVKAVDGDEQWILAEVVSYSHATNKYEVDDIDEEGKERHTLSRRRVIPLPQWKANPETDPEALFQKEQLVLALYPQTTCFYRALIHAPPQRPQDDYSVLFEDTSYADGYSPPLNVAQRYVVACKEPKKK

dH [1]	dH [2]	dH (TAF3 PHD zinc finger)	Kd [3]	dH [3]	Binder
-13.1 kcal/mol	-7.7 kcal/mol	-10.1 kcal/mol	110 nM	-11.1 kcal/mol	ARTK(Me3)QTARKS [10-mer histone peptide L-H3K4me3]
–	–	–	1200 nM	-7.8 kcal/mol	ART[dK](Me3)QTARKS [10-mer histone peptide D-H3K4me3]
